Publication PMC3804602, “Nanobody Mediated Crystallization of an Archeal Mechanosensitive Channel” (PLoS ONE, 2013)
Numbering of substitutions follows the chain as printed. One block for each molecule: values may come before it.

How the values were obtained:
[1] = molecular target: T1 mechanosensitive channel from Thermoplasma volcanium (Thermoplasma volcanium); experiment: cross-linking; chemical crosslinking; the sample of T1 is not told (only T2 is shown, Figure 2 D)
[2] = molecular target: His-tagged T2 mechanosensitive channel from Thermoplasma volcanium (Thermoplasma volcanium); experiment: cross-linking; chemical crosslinking of the T2 channel in crude membranes; ladder of five bands
[3] = molecular target: His-tagged T2 mechanosensitive channel from Thermoplasma volcanium (Thermoplasma volcanium); experiment: far-Western, overlay or dot blot; channel samples run on SDS-PAGE and blotted on nitrocellulose (His-tagged T1 0.1 µg, His-tagged T2 0.1 µg, tag free T2 0.01 and 0.1 µg); strips incubated with nanobody at 1 µg/ml for 1 hour, bound His-tagged nanobody detected with HisProbe-HRP; intensity ratio of lane 2 of the sample strip to the reference strip
[4] = molecular target: T1, T2 mechanosensitive channel from Thermoplasma volcanium, tag free (Thermoplasma volcanium); experiment: SPR; BIAcore 3000, 25 °C, 20 mM sodium phosphate pH 7.4, 150 mM NaCl, 0.03 % DDM; T2 channel amine-coupled on CM5 (1500 - 2000 RU); nanobodies 0.35 - 86.1 nM injected in triplicates; global fit to a simple bimolecular model, KD = kd/ka; details: both partners purified
T1 construct: TVN0821, gene amplified from genomic DNA (DSM 4299 [GSS1*]); 297 amino acids per monomer; Cloned into pNIC28-Bsa4 (TEV site) and pET46 (Enterokinase site); In detergent (0.03 % DDM); also called T2 channel; tag free T2-channel; source: E. coli C43(DE3), purified (DDM solubilised, IMAC, tag cleavage, second IMAC, gel filtration); not shown: His-tag, N-terminal, cleaved
T1 chain: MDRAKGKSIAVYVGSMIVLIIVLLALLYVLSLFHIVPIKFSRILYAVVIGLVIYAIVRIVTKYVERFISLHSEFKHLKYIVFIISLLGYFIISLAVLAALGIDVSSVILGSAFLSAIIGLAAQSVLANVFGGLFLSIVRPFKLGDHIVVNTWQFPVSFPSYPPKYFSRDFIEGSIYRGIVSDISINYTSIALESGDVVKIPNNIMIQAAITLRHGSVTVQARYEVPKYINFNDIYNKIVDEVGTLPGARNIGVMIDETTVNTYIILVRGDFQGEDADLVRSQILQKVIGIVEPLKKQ

Molecule: T1 mechanosensitive channel from Thermoplasma volcanium (natural protein)
stoichiometry N [1]: 5

B1: nanobody 17 (VHH)
VHH: QVQLQESGGGLVQPGGSLRLSCAASGSIFSINSMDWYRQAPGKQRELVATITSGGSTNYADSVKGRFTISRDNGKNTVYLQMNSLKPEDTAVYYCHAVVSTRGGYWGQGTQVTVSS
notes: pHEN6 vector; also called Nb 17; CA-number 3399; source: E. coli WK6 periplasm, purified (IMAC, gel filtration); not shown: His-tag, C-terminal, kept
ratio of WB intensities [3]: 6.09
Kd [4]: 4.5 nM
koff [4]: 0.00315 s⁻¹
kon [4]: 710000 M⁻¹ s⁻¹

B2: nanobody 18 (VHH)
VHH: QVQLQESGGGLVQPGGSLRLSCAASGSIFSINAMGWYRQAPGKQRELVAFITKVGNTNYADSVKDRFAISRDNAKNTVYLQMNSLKPEDTAVYYCYADIENSSNYKQDFYWGQGTQVTVSS
notes: pHEN6 vector; also called Nb 18; CA-number 3401; source: E. coli WK6 periplasm, purified (IMAC, gel filtration); not shown: His-tag, C-terminal, kept
ratio of WB intensities [3]: 15.7
Kd [4]: 1.1 nM
koff [4]: 0.00052 s⁻¹
kon [4]: 480000 M⁻¹ s⁻¹

B3: nanobody 19 (VHH)
VHH: QVQLQESGGGLVQPGGSLRLSCAASGSISRLNHMGWYRQPPGKQRELVAVITSGGSTDYADSVKGRFTISSGNAKNTVYLQMNSLKTEDTAVYYCNAYSEFIRPYTLWGQGTQVTVSS
notes: pHEN6 vector; also called Nb 19; CA-number 3402; source: E. coli WK6 periplasm, purified (IMAC, gel filtration); not shown: His-tag, C-terminal, kept
ratio of WB intensities [3]: 17.5
Kd [4]: 1.29 nM
koff [4]: 0.0015 s⁻¹
kon [4]: 1.35e+06 M⁻¹ s⁻¹

B4: nanobody 20 (VHH)
VHH: B1 VHH with S27N, S30G, A60G, G74A, V78M, V99L
notes: pHEN6 vector; also called Nb 20; CA-number 3403; source: E. coli WK6 periplasm, purified (IMAC, gel filtration); not shown: His-tag, C-terminal, kept
ratio of WB intensities [3]: 4.86
Kd [4]: 3.5 nM
koff [4]: 0.0036 s⁻¹
kon [4]: 1.03e+06 M⁻¹ s⁻¹

B6: nanobody 3 (VHH)
VHH: QVQLQESGGGLVQPGGSLRLSCAASGFTLDYYAIGWFRQTPGKEREGVSCISSSDDSTYYADSVKGRFTISRDNAKNTVYLQMNSLKPEDTAVYYCATGWACTLVAGTNGMDYWGKGTQVTVSS
notes: pHEN6 vector; also called Nb 3; CA-number 3382; source: E. coli WK6 periplasm, purified (IMAC, gel filtration); not shown: His-tag, C-terminal, kept
ratio of WB intensities [3]: 4.59
Kd [4]: 9.5 nM
koff [4]: 0.0091 s⁻¹
kon [4]: 960000 M⁻¹ s⁻¹

B8: nanobody 6 (VHH)
VHH: QVQLQESGGGLVQPGGSLRLSCAASGSIFSINAMGWYRQAPGKQRELVAVLTRRGSTNYADSMKGRFTISRDNTKNTVYLQMNSLKPEDTAVYYCNADLEGRPLYWGQGTQVTVSS
notes: pHEN6 vector; also called Nb 6; CA-number 3387; source: E. coli WK6 periplasm, purified (IMAC, gel filtration); not shown: His-tag, C-terminal, kept
ratio of WB intensities [3]: 4.7
Kd [4]: 4.4 nM
koff [4]: 0.0081 s⁻¹
kon [4]: 1.82e+06 M⁻¹ s⁻¹

B9: nanobody 8 (VHH)
VHH: QVQLQESGGGLVQPGGSLRLSCAASGSPFSFGAMGWYRQAPGKQRELAAIITNAGSTMYADSVKGRFTVSRVNAKNTVSLQMNNLKPEDTAVYYCYAQTAPVADVTWGQGTQVTVSS
notes: pHEN6 vector; also called Nb 8; CA-number 3389; source: E. coli WK6 periplasm, purified (IMAC, gel filtration); not shown: His-tag, C-terminal, kept
ratio of WB intensities [3]: 15
Kd [4]: 0.58 nM
koff [4]: 0.00089 s⁻¹
kon [4]: 1.56e+06 M⁻¹ s⁻¹

B10: nanobody 10 (VHH)
VHH: B1 VHH with G74A, S100A
notes: pHEN6 vector; also called Nb 10; CA-number 3391; source: E. coli WK6 periplasm, purified (IMAC, gel filtration); not shown: His-tag, C-terminal, kept
ratio of WB intensities [3]: 9.8
Kd [4]: 3.9 nM
koff [4]: 0.0036 s⁻¹
kon [4]: 940000 M⁻¹ s⁻¹

B11: nanobody 11 (VHH)
VHH: QVQLQESGGGLVQAGGSLRLSCAASGGPFTFGAMGWYRQAPGKQRELVAIITKKGSTNYADSVKGRFTVSRDNAKNTVYLQMNSLKPEDTAVYYCYHQTAPVADVTWGQGTQVTVSS
notes: pHEN6 vector; also called Nb 11; CA-number 3393; source: E. coli WK6 periplasm, purified (IMAC, gel filtration); not shown: His-tag, C-terminal, kept
ratio of WB intensities [3]: 14.2
Kd [4]: 15.1 nM
koff [4]: 0.0016 s⁻¹
kon [4]: 100000 M⁻¹ s⁻¹

B15: nanobody 15 (VHH)
VHH: QVQLQESGGGLVQPGGSLRLSCAASGSISTINHMGWYRQPPGKQRELVAVITRSGSTNYADSVKGRFTISRGNVKNTVYLQMNSVKAEDTAVYYCNAYTEFDRPYNHWGQGTQVTVSS
notes: pHEN6 vector; also called Nb 15; CA-number 3397; source: E. coli WK6 periplasm, purified (IMAC, gel filtration); not shown: His-tag, C-terminal, kept
ratio of WB intensities [3]: 25.7
Kd [4]: 0.057 nM
koff [4]: 0.00011 s⁻¹
kon [4]: 1.96e+06 M⁻¹ s⁻¹

B16: nanobody 16 (VHH)
VHH: B11 VHH with A14P, R19T, G27S, T30S, K53S, K54G
notes: pHEN6 vector; also called Nb 16; CA-number 3398; source: E. coli WK6 periplasm, purified (IMAC, gel filtration); not shown: His-tag, C-terminal, kept
ratio of WB intensities [3]: 1.98
Kd [4]: 7.4 nM
koff [4]: 0.0055 s⁻¹
kon [4]: 750000 M⁻¹ s⁻¹

B19: nanobody 2 (VHH)
VHH: QVQLQESGGGLVQAGGSLRLSCAASGGTFRTGGMAWFRQAPGKAREFAAGISWSGGSTDYGDSVKGRFTISRDNAKNTVYLQMNSLKPEDTAVYYCAASRRFRSGVLTRADDVDYWGKGTQVTVSS
notes: pHEN6 vector; also called Nb 2; CA-number 3381; source: E. coli WK6 periplasm, purified (IMAC, gel filtration); not shown: His-tag, C-terminal, kept
Kd [4]: 81.2 nM
koff [4]: 0.104 s⁻¹
kon [4]: 1.31e+06 M⁻¹ s⁻¹

B21: nanobody 7 (VHH)
VHH: QVQLQESGGGLVQPGGSLRLSCTASGTIFMIDAMGWYRQAPGKQRELVALINSGGSTNYADSVKGRFAISRNNARSTVYLQMNSLKPEDTAVYYCNADTWNGVRRDVYWGQGTQVTVSS
notes: pHEN6 vector; also called Nb 7; CA-number 3388; source: E. coli WK6 periplasm, purified (IMAC, gel filtration); not shown: His-tag, C-terminal, kept
Kd [4]: 23 nM
koff [4]: 0.07 s⁻¹
kon [4]: 3e+06 M⁻¹ s⁻¹

Further lines, results first:

stoichiometry N [2]: 5
Molecule: His-tagged T2 mechanosensitive channel from Thermoplasma volcanium (natural protein)

ratio of WB intensities [3]: 16.6
Kd [4]: 0.78 nM
koff [4]: 0.00095 s⁻¹
kon [4]: 1.26e+06 M⁻¹ s⁻¹
B5: nanobody 23 (VHH)
VHH: B11 VHH with A14P, S17F, R19T, G27S, T30S, K53R, K54R, R71S
notes: pHEN6 vector; also called Nb 23; CA-number 3407; source: E. coli WK6 periplasm, purified (IMAC, gel filtration); not shown: His-tag, C-terminal, kept

ratio of WB intensities [3]: 3.87
Kd [4]: 3.4 nM
koff [4]: 0.0021 s⁻¹
kon [4]: 620000 M⁻¹ s⁻¹
B7: nanobody 4 (VHH)
VHH: B1 VHH with I31M, G74A, K75W, Y79T, V99L
notes: pHEN6 vector; also called Nb 4; CA-number 3383; source: E. coli WK6 periplasm, purified (IMAC, gel filtration); not shown: His-tag, C-terminal, kept

ratio of WB intensities [3]: 7.15
Kd [4]: 3.8 nM
koff [4]: 0.0025 s⁻¹
kon [4]: 650000 M⁻¹ s⁻¹
B12: nanobody 12 (VHH)
VHH: QVQLQESGGGLVQPGGSLRLSCVASGSIFSINAMGWYRQAPGKQRDLVAVITSRGSTNYADSVKGRFTISRDNAKNTTYLQMNSLKPEDTAVYYCNADLAAYYSGTYYDTLLYWGQGTQVTVSS
notes: pHEN6 vector; also called Nb 12; CA-number 3394; source: E. coli WK6 periplasm, purified (IMAC, gel filtration); not shown: His-tag, C-terminal, kept

ratio of WB intensities [3]: 15.1
Kd [4]: 0.61 nM
koff [4]: 0.00088 s⁻¹
kon [4]: 1.46e+06 M⁻¹ s⁻¹
B13: nanobody 13 (VHH)
VHH: B15 VHH with T30R, R53S, S54G, V74Y, K75Q, V85L
notes: pHEN6 vector; also called Nb 13; CA-number 3395; source: E. coli WK6 periplasm, purified (IMAC, gel filtration); not shown: His-tag, C-terminal, kept

ratio of WB intensities [3]: 6.07
Kd [4]: 2.6 nM
koff [4]: 0.0023 s⁻¹
kon [4]: 880000 M⁻¹ s⁻¹
B14: nanobody 14 (VHH)
VHH: B1 VHH with G74A, Y94L, S100A
notes: pHEN6 vector; also called Nb 14; CA-number 3396; source: E. coli WK6 periplasm, purified (IMAC, gel filtration); not shown: His-tag, C-terminal, kept

Kd [4]: 14.2 nM
koff [4]: 0.0278 s⁻¹
kon [4]: 1.98e+06 M⁻¹ s⁻¹
B17: nanobody 1 (VHH)
VHH: QVQLQESGGGLVQPGGSLRLSCAASGRIPFITAMGWYRQAPGKQRELLASVTNSEITNYADSVKGRFTISRDNARNRVYLQMNSLKPEDTAVYYCNVKRAGNLIDYWGQGTQVTVSS
notes: pHEN6 vector; also called Nb 1; CA-number 3379; source: E. coli WK6 periplasm, purified (IMAC, gel filtration); not shown: His-tag, C-terminal, kept

Kd [4]: 37 nM
koff [4]: 0.171 s⁻¹
kon [4]: 5e+06 M⁻¹ s⁻¹
B18: nanobody 21 (VHH)
VHH: QVQLQESGGGLVQPGGSLRLSCAASGRIPFITAMGWYRQAPGRQRELLATVTNSGSTNYADSVKGRFTISRDNAKNTVSLQMNSLKAEDTAVYYCNVRRLGNLSDYWGQGTQVTVSS
notes: pHEN6 vector; also called Nb 21; CA-number 3404; source: E. coli WK6 periplasm, purified (IMAC, gel filtration); not shown: His-tag, C-terminal, kept

Kd [4]: 25.4 nM
koff [4]: 0.0061 s⁻¹
kon [4]: 240000 M⁻¹ s⁻¹
B20: nanobody 22 (VHH)
VHH: B19 VHH with R30K, T31S, G61E, V79M, S99A, S104A, L107V
notes: pHEN6 vector; also called Nb 22; CA-number 3406; source: E. coli WK6 periplasm, purified (IMAC, gel filtration); not shown: His-tag, C-terminal, kept

Kd [4]: 48.3 nM
koff [4]: 0.15 s⁻¹
kon [4]: 3.1e+06 M⁻¹ s⁻¹
B22: nanobody 9 (VHH)
VHH: B15 VHH with S29F, T30G, H33A, Q39R, R53S, S54G, V74A, V85L, E100D, D102V
notes: pHEN6 vector; also called Nb 9; CA-number 3390; source: E. coli WK6 periplasm, purified (IMAC, gel filtration); not shown: His-tag, C-terminal, kept
